From article PMC3735183

Target: human secretory immunoglobulin A (SIgA) (human) (UniProt P01833)
Assay: SPR

Chain of UniProt P01833 (P01833 whole entry, looked up): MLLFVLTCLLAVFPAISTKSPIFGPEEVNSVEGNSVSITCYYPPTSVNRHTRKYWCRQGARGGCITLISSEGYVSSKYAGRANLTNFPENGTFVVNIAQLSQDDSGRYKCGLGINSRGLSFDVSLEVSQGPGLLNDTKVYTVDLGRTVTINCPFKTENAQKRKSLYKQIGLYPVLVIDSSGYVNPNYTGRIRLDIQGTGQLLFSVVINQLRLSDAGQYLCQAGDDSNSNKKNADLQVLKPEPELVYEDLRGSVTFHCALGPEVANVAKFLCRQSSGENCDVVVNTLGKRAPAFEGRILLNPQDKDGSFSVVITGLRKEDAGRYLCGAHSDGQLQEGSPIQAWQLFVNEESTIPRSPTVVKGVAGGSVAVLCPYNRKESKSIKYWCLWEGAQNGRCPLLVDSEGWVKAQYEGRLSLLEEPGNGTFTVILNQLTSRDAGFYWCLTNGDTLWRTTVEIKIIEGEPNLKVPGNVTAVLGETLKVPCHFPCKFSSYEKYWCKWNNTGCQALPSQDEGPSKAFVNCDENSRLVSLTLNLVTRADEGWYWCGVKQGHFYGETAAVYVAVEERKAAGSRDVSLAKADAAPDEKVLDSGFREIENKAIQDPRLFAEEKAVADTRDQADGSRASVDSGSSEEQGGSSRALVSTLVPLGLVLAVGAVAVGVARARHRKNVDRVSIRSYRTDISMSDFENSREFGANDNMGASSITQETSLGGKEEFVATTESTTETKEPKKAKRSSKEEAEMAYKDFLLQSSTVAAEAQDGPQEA

EsiB (E. coli secretory immunoglobulin A-binding protein), recombinant, without signal peptide (natural protein)
Kd: 30.2 µM | koff: 0.042 s⁻¹ | kon: 1390 M⁻¹ s⁻¹
